Here are results for two molecules from article PMC12572175, “A synergistic generative-ranking framework for tailored design of therapeutic single-domain antibodies” (Cell Discovery, 2025).

The target in this assay is T1, Recombinant human TNFα (Homo sapiens, UniProt P01375).
T1 construct: human TNFα, residues 77-233 of GenBank AAA61198.1, behind an N-terminal signal peptide and 6x His tag; also called hTNFα; TFNα; source: Expi293, transient transfection, purified (Ni-NTA)
Briefly: ELISA; 100-200 ng/well antigen coated in PBS, sdAbs added in 3-fold serial dilutions, 1.5 h at 37 °C, detected with HRP anti-flag antibody. Particulars: both partners purified. On the technique in general: In an ELISA, binding on a coated surface is turned into a signal by an enzyme label.

T1 sequence (P01375 77-233): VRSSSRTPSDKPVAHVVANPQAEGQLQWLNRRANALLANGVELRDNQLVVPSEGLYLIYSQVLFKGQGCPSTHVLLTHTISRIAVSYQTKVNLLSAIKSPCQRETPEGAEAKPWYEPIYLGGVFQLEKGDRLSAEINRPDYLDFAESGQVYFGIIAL

B1: VHH3-M1 (VHH)
VHH: QVQLQDSGGGLVQAGGSLRLSCAVSGRTFSAHSVYTMGWFRQAPGKEREFVARIYWSSANTYYADSVKGRFTISRDNAKNTVDLQMNSLRPEDTAVYYCAARDGIPTSRTVGSYNYWGQGTQVTVSS
notes: redesigned variant of VHH3 (carries L90Q, IMGT numbering); Designed by TFDesign-sdAb; pComb3x with N-terminal OmpA signal peptide; also called VHH-M1; source: E. coli HB2151, purified (Ni-NTA or Protein A resin); also in lysis supernatant; not shown: FLAG, C-terminal, kept
On to B1, for which the binding result is recorded as “binds”.

B2: VHH3-M3 (VHH)
VHH: QVQLQDSGGGLVQAGGSLRLSCAVSGRTFSAHSVYTMGWFRQAPGKEREFVARIYWSSANTYYADSVKGRFTISRDNAKNTVYLQMNSLRPEDTAVYYCAARDGIPTSRTVGSYNYWGQGTQVTVSS
notes: redesigned variant of VHH3 (carries L90Q; differs from VHH3-M1 only at position 88, IMGT numbering); Designed by TFDesign-sdAb; pComb3x with N-terminal OmpA signal peptide; also called VHH-M3; source: E. coli HB2151, purified (Ni-NTA or Protein A resin); also in lysis supernatant; not shown: FLAG, C-terminal, kept
On to B2, for which the binding result is on record as “binds”.
